Measured values published in PMC9385563 (Molecules and Cells, 2022).
Values belong to the molecule of their own block, whether it stands above or below them.

What was measured:
ABCB6-∆TMD0 [1] = target: T1, ABCB6-∆TMD0 (Homo sapiens, UniProt Q9NP58); experiment: microscale thermophoresis, initial fluorescence change; assay type: binding
T1 sequence (Q9NP58 206-842): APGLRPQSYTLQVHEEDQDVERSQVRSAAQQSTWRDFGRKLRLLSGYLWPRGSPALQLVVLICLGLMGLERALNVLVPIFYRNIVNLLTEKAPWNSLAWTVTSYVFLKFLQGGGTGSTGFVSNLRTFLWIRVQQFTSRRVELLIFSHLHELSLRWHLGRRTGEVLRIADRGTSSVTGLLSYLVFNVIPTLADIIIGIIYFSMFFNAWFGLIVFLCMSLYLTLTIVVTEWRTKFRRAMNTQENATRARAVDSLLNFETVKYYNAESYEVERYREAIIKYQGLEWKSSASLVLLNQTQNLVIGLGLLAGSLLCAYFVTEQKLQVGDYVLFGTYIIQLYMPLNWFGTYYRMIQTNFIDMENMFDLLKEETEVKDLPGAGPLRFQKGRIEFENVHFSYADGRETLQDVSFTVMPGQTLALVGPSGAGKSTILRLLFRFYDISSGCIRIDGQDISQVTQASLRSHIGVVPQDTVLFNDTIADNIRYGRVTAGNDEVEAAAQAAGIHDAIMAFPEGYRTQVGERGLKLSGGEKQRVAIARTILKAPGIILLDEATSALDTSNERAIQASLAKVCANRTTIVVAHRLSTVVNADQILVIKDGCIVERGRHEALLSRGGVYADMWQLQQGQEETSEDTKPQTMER

ABCB6-∆TMD0 [2] = target: T2, ABCB6-∆TMD0 (Homo sapiens, UniProt Q9NP58, DEL318-324); experiment: as above; assay type: binding
T2 sequence (Q9NP58 with tags, fused parts or gaps DEL318-324): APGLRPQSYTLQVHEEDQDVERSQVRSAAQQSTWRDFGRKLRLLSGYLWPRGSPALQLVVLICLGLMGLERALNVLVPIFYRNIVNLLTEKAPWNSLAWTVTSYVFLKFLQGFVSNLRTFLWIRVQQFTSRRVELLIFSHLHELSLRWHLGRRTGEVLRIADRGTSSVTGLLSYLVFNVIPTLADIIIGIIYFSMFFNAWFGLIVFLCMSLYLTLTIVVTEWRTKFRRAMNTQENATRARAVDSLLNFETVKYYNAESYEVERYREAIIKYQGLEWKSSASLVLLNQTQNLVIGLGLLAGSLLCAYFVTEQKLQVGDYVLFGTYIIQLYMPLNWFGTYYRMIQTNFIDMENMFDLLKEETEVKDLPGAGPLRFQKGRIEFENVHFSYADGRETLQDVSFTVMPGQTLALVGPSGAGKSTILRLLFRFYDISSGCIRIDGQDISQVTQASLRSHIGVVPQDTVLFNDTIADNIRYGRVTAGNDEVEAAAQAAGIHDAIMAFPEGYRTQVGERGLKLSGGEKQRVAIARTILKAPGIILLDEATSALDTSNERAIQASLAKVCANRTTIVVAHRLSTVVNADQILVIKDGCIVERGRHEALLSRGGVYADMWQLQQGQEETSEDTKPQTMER

ABCB6-∆TMD0 [3] = target: T3, ABCB6-∆TMD0 (Homo sapiens, UniProt Q9NP58, R435A/R439A/R552A); experiment: as above; assay type: binding
T3 sequence (Q9NP58 206-842 R435A/R439A/R552A): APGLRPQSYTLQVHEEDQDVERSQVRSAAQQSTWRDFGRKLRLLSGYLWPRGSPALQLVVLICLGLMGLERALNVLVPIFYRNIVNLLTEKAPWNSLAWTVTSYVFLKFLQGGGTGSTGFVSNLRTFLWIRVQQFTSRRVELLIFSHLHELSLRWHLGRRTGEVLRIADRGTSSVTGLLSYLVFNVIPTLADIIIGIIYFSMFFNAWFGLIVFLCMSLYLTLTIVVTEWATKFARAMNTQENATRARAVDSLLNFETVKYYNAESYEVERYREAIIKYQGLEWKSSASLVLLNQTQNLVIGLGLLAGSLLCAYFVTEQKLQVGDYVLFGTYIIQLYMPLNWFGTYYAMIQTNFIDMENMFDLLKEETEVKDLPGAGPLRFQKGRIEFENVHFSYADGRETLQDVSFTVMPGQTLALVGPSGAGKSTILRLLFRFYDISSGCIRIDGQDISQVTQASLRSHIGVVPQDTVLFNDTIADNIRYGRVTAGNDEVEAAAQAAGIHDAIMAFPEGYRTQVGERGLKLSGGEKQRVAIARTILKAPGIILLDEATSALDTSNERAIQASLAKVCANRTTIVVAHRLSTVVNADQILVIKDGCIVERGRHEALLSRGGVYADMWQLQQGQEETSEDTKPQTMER

purified protein [4] = substrate: C=CC1=C(C)C2=Cc3c(C=C)c(C)c4[n]3[Fe]([Cl])[n]3c(c(C)c(CCC(=O)O)c3=CC3=NC(=C4)C(C)=C3CCC(=O)O)=CC1=N2; experiment: purified protein; conditions: Km from stimulation of ATP hydrolysis, 37°C
purified protein [5] = substrate: CC1=C(CCC(=O)O)c2cc3nc(cc4[nH]c(cc5[nH]c(cc1n2)c(C)c5CCC(=O)O)c(CCC(=O)O)c4C)C(CCC(=O)O)=C3C; experiment: purified protein; conditions: Km from stimulation of ATP hydrolysis, 37°C, Cymal-6/CHS
cryo-EM structure = target: the molecule itself; experiment: cryo-EM structure

Kd (ABCB6-∆TMD0 [1]): 8.2 ± 0.1 µM | Kd (ABCB6-∆TMD0 [2]): 14.1 ± 0.9 µM | Kd (ABCB6-∆TMD0 [3]): 17.8 ± 3 µM
Molecule: CC1=C(CCC(=O)O)c2cc3nc(cc4[nH]c(cc5[nH]c(cc1n2)c(C)c5CCC(=O)O)c(CCC(=O)O)c4C)C(CCC(=O)O)=C3C [CPIII]

B1: ABCB6-∆TMD0 (core region of human ABCB6, residues 206-842) (domain or fragment, UniProt Q9NP58 206-842, looked up)
chain: APGLRPQSYTLQVHEEDQDVERSQVRSAAQQSTWRDFGRKLRLLSGYLWPRGSPALQLVVLICLGLMGLERALNVLVPIFYRNIVNLLTEKAPWNSLAWTVTSYVFLKFLQGGGTGSTGFVSNLRTFLWIRVQQFTSRRVELLIFSHLHELSLRWHLGRRTGEVLRIADRGTSSVTGLLSYLVFNVIPTLADIIIGIIYFSMFFNAWFGLIVFLCMSLYLTLTIVVTEWRTKFRRAMNTQENATRARAVDSLLNFETVKYYNAESYEVERYREAIIKYQGLEWKSSASLVLLNQTQNLVIGLGLLAGSLLCAYFVTEQKLQVGDYVLFGTYIIQLYMPLNWFGTYYRMIQTNFIDMENMFDLLKEETEVKDLPGAGPLRFQKGRIEFENVHFSYADGRETLQDVSFTVMPGQTLALVGPSGAGKSTILRLLFRFYDISSGCIRIDGQDISQVTQASLRSHIGVVPQDTVLFNDTIADNIRYGRVTAGNDEVEAAAQAAGIHDAIMAFPEGYRTQVGERGLKLSGGEKQRVAIARTILKAPGIILLDEATSALDTSNERAIQASLAKVCANRTTIVVAHRLSTVVNADQILVIKDGCIVERGRHEALLSRGGVYADMWQLQQGQEETSEDTKPQTMER
Km (purified protein [4]; with 1 mM GSH, Cymal-6/CHS): 3 ± 0.3 µM | kcat (purified protein [4]; with 1 mM GSH, Cymal-6/CHS): 36 min^–1 | Km (purified protein [5]): 19 ± 3.7 µM | kcat (purified protein [5]): 25 min^–1 | stoichiometry N (cryo-EM structure): 2

B2: ABCB6-∆TMD0 (Homo sapiens; Y550A) (protein)
chain: APGLRPQSYTLQVHEEDQDVERSQVRSAAQQSTWRDFGRKLRLLSGYLWPRGSPALQLVVLICLGLMGLERALNVLVPIFYRNIVNLLTEKAPWNSLAWTVTSYVFLKFLQGGGTGSTGFVSNLRTFLWIRVQQFTSRRVELLIFSHLHELSLRWHLGRRTGEVLRIADRGTSSVTGLLSYLVFNVIPTLADIIIGIIYFSMFFNAWFGLIVFLCMSLYLTLTIVVTEWRTKFRRAMNTQENATRARAVDSLLNFETVKYYNAESYEVERYREAIIKYQGLEWKSSASLVLLNQTQNLVIGLGLLAGSLLCAYFVTEQKLQVGDYVLFGTYIIQLYMPLNWFGTAYRMIQTNFIDMENMFDLLKEETEVKDLPGAGPLRFQKGRIEFENVHFSYADGRETLQDVSFTVMPGQTLALVGPSGAGKSTILRLLFRFYDISSGCIRIDGQDISQVTQASLRSHIGVVPQDTVLFNDTIADNIRYGRVTAGNDEVEAAAQAAGIHDAIMAFPEGYRTQVGERGLKLSGGEKQRVAIARTILKAPGIILLDEATSALDTSNERAIQASLAKVCANRTTIVVAHRLSTVVNADQILVIKDGCIVERGRHEALLSRGGVYADMWQLQQGQEETSEDTKPQTMER
Km (purified protein [4]; with GSH): 10 µM
